We go through 1 molecule from publication PMC8866402.

The target in test [1] is recombinant mouse TGF-β1 (mouse).
For test [2], the target named is recombinant human TGF-β1 produced in-house (human).
Sequence of recombinant human TGF-β1 produced in-house (human) (P01137 279-390): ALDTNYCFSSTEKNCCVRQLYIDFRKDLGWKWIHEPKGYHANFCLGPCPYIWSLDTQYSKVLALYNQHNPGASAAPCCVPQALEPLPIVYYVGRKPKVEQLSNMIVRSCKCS

Sequence of recombinant mouse TGF-β1 (mouse) (P04202 279-390): as the sequence (P01137 279-390) above, with A75S counted along it

B1: strep-tag-fortilin (recombinant human fortilin with an N-terminal Strep-tag II) (natural protein)
chain: MIIYRDLISHDEMFSDIYKIREIADGLCLEVEGKMVSRTEGNIDDSLIGGNASAEGPEGEGTESTVITGVDIVMNHHLQETSFTKEAYKKYIKDYMKSIKGKLEEQRPERVKPFMTGAAEQIKHILANFKNYQFFIGENMNPDGMVALLDYREDGVTPYMIFFKDGLEMEKC
On to B1, for which the SEAP reporter (SBE) activity of MFB-F11 cells stimulated with 156 pM TGF-β1 pre-incubated with 0, 19.5 or 195 nM strep-tag-fortilin; value given is at 195 nM fortilin in test [1] is 6.3 A.U. Besides, in test [2], the SBE-luciferase activity (firefly/Renilla) in HEK293 cells treated with TGF-β1 (1 nM) without vs with strep-tag-fortilin (3 nM); value given is with fortilin was 5.4 A.U.
